# Laboratory results reported in the DeepSol protein solubility set.
# Assay: soluble on expression in E. coli; label from the status in PepcDB or PDB records
row,Sequence,soluble on expression in E. coli
1,MRLLVADDHPLFRLGLKAALEAEGLEVVAEAGTGEEALVQALEKAPDAVLLDLRMPGMDGLTCARRLREMGYRGLVILLTTYQEPALLLEAYKAGADAYLSKELSAPELKRRLLRIRQGEERLTAPDIPALTPREEEVLRLLAEGLSTKEIARALRLSPETVRSHLESLYAKLEARNRVEALSRARSLGLLP,soluble
2,AHHHHHHGSKILYPTDFSEVSQKALTECVPSIILGIGEGSELILLHVVDITASEIGALELAEVDKEELNNLASQLREKGIKVKPIVRIGIPSLEISEVAKEENVDLIIIPSKGENILRQMLLGSTASNLARITHKPVLLLRYEVENGEIKSLQDCSRIFEKPLVALDLSKCSEKIIETIKDLPGVREAVLFHVVDYGKVEELENNIKNAKEKLSKYGKLLPWKTKIEVQAGIASKGIIGAAIDNNVTLVVIGKKGRSVLKDLLLGSTAERVIRDCKLPTLLIPCE,not soluble
3,MLGGKGRPSGVGGYRILVTTSRRPSPRIRSFVKDLSATIPGAFRFTRGHYSMEELAREAIIRGADRIVVVGERRGNPGIIRVYAVEGPERPDNIVSFIVKGVSLSRERRWGLPSLRGGEVLVARPLDSGVAVEFADAFVIAFHARLKPPEAAGYVEAVIESLDARTVAVTFRYGGAPVGPMLRLGKPAEMVKRGRRVAAALEHHHHHH,not soluble
4,MILFVGFLLMEIVMPQISRTALVPYSAEQMYQLVNDVQSYPQFLPGCTGSRILESTPGQMTAAVDVSKAGISKTFTTRNQLTSNQSILMNLVDGPFKKLIGGWKFTPLSQEACRIEFHLDFEFTNKLIELAFGRVFKELAANMVQAFTVRAKEVYSARLEHHHHHH,not soluble
5,MMDSCIRIAGIIGESIVDGPGIRLVVFAQGCPHHCPGCHNPETHAYEGGKSVAIAEILQRLAMNPLLDGITLSGGEPFAQAAGFALLAQSARQRGFHVMTYSGYTYEELTASSEQNPAWALLLEQTDLLVDGPFQLAERNLLLPFRGSENQRVIDVQESLRQGKVVLASVLEHHHHHH,not soluble
6,MDGQTLHAWAKRFALELPFTEHCWPFGPQYDVFKVGGKIFMLFTEHHCRPVVNLKSDPQKSLVNQQIYPSIAPGYHMNKKHWISVYAGEDITVSLLNDLINDSWNLVVDGLPKREQLRLRPR,not soluble
7,MKKVIFKPLKSYPVKMAMIALTLLAASPITHAEESKMKNATITVTATGENQATPDMAIINLAVVTQDKTAQKALADNNKSMNDIINAFKNNGIQANDLQTSGLSIYQSNPNKDHEKKNNGIVYHVSNSLTVRIRDLSNAGKIFDQAMALGVNSVHGITFTNANTKPFYQEARKKAIAEAIEKAKTIAEAADLKLGKIIKINENDDNYYSRPHLMSKAVNANYTDTTFSSGELNYSVSVTIVFAID,not soluble
8,MIEINDVNKKYQQTTVLNEINERIPSGGITSIIGPNGAGKSTLLSIMSRLLAADSGNVLFNGLDVAKTSGDKLATILSVLRQENHFTSRLTVSDLVGFGRYPYSRGRLNKNDRQHIDAAMEFLNLMPLKDRYLDELSGGQRQRAYVAMVLCQDTSYILLDEPLNNLDMKHCVAMMKQLRRAADELHKTIILVIHDINFASAYSDHIIAMKNGEVIYRGAPAEIMQPSILEEIFDIKISIEKVQGQHIAVYYR,not soluble
9,MGSDKIHHHHHHAPNEEGISVQKMTGFPEGEPGFSLGVSACYAGIYQGELLIAGGCNFPETPAAEGGKKKFYQGIYAADASADSVFVWRKVGQLPVAAAYGVSVSTPRGIVCVGGSNENGSLSTVYRLSLSDDKQAVIVDTLPSLPCTMDNMSGSVVDYTLFVAGGNVNGKPSNGLYCLNLGNPETGWQQLPDFPGAPRVQPVCVGQRKENETLLYLWGGFSGAFDGRSATLSTDGYCYSPSLQQWQPVSTPIGSDSVPVALGGGAGIALTDSLILCTGGVNKDIFLSALQREEMMKAAVTGGNQAAVDSLKSEAKTYMLHPAEWYRFNDRILIYNTRRDKWEEAVRSQDVARAGAALTTGQGQTFFNINGELKPGIRTPEIAKIMID,not soluble
10,MGSSHHHHHHSSGLVPRGSSGHVGLRNLGNTCFLNAVLQCLSSTRPLRDFCLRRDFRQEVPGGGRAQELTEAFADVIGALWHPDSCEAVNPTRFRAVFQKYVPSFSGYSQQDAQEFLKLLMERLHLEINRRGRRAPPILANGPVPSPPRRGGALLEEPELSDDDRANLMWKRYLEREDSKIVDLFVGQLKSCLKCQACGYRSTTFEVFCDLSLPIPKKGFAGGKVSLRDCFNLFTKEEELESENAPVCDRCRQKTRSTKKLTVQRFPRILVLHLNRFSASRGSIKKSSVGVDFPLQRLSLGDFASDKAGSPVYQLYALCNHSGSVHYGHYTALCRCQTGWHVYNDSRVSPVSENQVASSEGYVLFYQLMQEPP,soluble
